Assay results published in patent US20220363757A1 (SYMPHOGEN A S, published 2022).

T1: human LAG-3 domain 1-2 Fc fusion, point mutation #43 P96A (human, UniProt P18627 23-266)
T1 construct: not shown: human IgG1 Fc, AA P101-K330
T1 sequence: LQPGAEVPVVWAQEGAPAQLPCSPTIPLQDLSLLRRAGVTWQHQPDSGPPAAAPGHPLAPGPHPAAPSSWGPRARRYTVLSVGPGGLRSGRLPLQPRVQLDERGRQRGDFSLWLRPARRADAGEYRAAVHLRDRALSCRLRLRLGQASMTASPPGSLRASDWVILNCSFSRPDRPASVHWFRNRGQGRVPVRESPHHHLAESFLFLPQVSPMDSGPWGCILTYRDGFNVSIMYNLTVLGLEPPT

T2: human LAG-3 domain 1-2 Fc fusion, point mutation #53 L109A (human, UniProt P18627 23-266)
T2 construct: not shown: human IgG1 Fc, AA P101-K330
T2 sequence: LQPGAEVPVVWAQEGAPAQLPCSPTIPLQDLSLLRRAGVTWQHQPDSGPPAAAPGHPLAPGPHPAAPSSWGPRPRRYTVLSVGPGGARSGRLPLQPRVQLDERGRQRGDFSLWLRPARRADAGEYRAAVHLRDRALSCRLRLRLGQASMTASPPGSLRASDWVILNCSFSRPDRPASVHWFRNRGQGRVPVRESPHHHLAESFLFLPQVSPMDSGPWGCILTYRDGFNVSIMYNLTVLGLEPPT

T3: human LAG-3 domain 1-2 Fc fusion, point mutation #70 G130A (human, UniProt P18627 23-266)
T3 construct: not shown: human IgG1 Fc, AA P101-K330
T3 sequence: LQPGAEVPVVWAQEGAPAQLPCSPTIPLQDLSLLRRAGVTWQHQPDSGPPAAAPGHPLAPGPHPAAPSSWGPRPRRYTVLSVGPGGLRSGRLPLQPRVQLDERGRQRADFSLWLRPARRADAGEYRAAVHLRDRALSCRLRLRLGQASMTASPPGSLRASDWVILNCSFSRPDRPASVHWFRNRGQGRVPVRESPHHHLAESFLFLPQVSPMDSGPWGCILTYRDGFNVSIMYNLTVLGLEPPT

T4: human LAG-3 domain 1-2 Fc fusion, point mutation #4 S45A (human, UniProt P18627 23-266)
T4 construct: not shown: human IgG1 Fc, AA P101-K330
T4 sequence: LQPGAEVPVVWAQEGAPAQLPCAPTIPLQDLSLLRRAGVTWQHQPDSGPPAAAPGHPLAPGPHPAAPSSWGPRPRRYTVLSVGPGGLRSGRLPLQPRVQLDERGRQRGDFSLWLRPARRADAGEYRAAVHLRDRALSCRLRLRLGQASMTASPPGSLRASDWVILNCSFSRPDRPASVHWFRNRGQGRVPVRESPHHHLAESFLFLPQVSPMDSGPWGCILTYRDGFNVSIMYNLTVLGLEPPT

T5: human LAG-3 domain 1-2 Fc fusion, point mutation #6 T47A (human, UniProt P18627 23-266)
T5 construct: not shown: human IgG1 Fc, AA P101-K330
T5 sequence: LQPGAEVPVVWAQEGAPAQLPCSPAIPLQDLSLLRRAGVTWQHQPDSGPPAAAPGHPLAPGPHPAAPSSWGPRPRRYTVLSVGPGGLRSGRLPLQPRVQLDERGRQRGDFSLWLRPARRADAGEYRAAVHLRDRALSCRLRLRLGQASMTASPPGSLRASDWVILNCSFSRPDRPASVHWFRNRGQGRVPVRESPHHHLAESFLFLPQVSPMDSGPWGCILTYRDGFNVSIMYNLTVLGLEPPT

T6: human LAG-3 domain 1-2 Fc fusion, point mutation #9 D52A (human, UniProt P18627 23-266)
T6 construct: not shown: human IgG1 Fc, AA P101-K330
T6 sequence: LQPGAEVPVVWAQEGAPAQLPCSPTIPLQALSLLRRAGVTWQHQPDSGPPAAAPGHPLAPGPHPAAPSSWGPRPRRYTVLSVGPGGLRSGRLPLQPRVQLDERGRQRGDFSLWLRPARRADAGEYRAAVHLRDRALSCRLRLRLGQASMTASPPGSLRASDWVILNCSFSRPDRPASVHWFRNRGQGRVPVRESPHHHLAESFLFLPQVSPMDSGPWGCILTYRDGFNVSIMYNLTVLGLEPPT

T7: human LAG-3 domain 1-2 Fc fusion, point mutation #12 R57A (human, UniProt P18627 23-266)
T7 construct: not shown: human IgG1 Fc, AA P101-K330
T7 sequence: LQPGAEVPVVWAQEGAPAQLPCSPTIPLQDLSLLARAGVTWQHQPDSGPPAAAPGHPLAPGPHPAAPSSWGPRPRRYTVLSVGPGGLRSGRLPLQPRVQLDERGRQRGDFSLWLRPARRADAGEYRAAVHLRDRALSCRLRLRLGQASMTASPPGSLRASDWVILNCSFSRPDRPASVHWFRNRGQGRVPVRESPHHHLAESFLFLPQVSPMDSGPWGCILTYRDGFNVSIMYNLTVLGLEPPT

T8: human LAG-3 domain 1-2 Fc fusion, point mutation #19 D68A (human, UniProt P18627 23-266)
T8 construct: not shown: human IgG1 Fc, AA P101-K330
T8 sequence: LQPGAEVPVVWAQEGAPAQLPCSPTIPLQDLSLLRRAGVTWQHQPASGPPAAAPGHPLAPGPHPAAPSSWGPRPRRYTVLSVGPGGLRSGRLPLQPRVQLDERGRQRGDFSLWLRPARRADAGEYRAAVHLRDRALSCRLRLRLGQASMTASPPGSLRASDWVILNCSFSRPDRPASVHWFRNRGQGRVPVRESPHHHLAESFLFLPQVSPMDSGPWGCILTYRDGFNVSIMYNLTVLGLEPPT

T9: human LAG-3 domain 1-2 Fc fusion, point mutation #33 P86A (human, UniProt P18627 23-266)
T9 construct: not shown: human IgG1 Fc, AA P101-K330
T9 sequence: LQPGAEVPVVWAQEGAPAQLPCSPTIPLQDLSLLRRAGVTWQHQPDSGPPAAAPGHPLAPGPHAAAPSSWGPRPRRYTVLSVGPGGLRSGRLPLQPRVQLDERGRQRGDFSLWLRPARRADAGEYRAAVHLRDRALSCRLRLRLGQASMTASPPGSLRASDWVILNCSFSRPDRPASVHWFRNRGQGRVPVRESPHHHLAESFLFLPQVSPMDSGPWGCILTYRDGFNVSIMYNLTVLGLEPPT


Legend:
Test in all cases: SPR, Fab over captured mutant LAG-3-Fc;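 note: fc fusion variants captured on anti-human IgG Fc sensor, Fab injected with association then dissociation phases, KD obtained from Langmuir one-to-one fit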
[1] = target: T1, human LAG-3 domain 1-2 Fc fusion, point …
[2] = target: T2, human LAG-3 domain 1-2 Fc fusion, point …
[3] = target: T3, human LAG-3 domain 1-2 Fc fusion, point …
[4] = target: T4, human LAG-3 domain 1-2 Fc fusion, point …
[5] = target: T5, human LAG-3 domain 1-2 Fc fusion, point …
[6] = target: T6, human LAG-3 domain 1-2 Fc fusion, point …
[7] = target: T7, human LAG-3 domain 1-2 Fc fusion, point …
[8] = target: T8, human LAG-3 domain 1-2 Fc fusion, point …
[9] = target: T9, human LAG-3 domain 1-2 Fc fusion, point …

Binder | KD mutant/KD wild type [1] [fold] | KD mutant/KD wild type [2] [fold] | KD mutant/KD wild type [3] [fold] | KD mutant/KD wild type [4] [fold] | KD mutant/KD wild type [5] [fold] | KD mutant/KD wild type [6] [fold] | KD mutant/KD wild type [7] [fold] | KD mutant/KD wild type [8] [fold] | KD mutant/KD wild type [9] [fold] | binding result [1] | binding result [3] | binding result [6] | binding result [8]
Fab fragment of antibody 15532 (Fab, V domains shown, not shown: a dimerising Fc or GST, monomeric Fab made by GingisKHAN digestion of the IgG1) VH: QVQLQQWGAGLLRPSETLSLTCAVYGESFSGYYWNWIRQPPGKGLEWIGEINHSGSTNYNPSLKSRVTISVDTSKTQFSLKLSSVTAADTAVYYCARGWDLLDWNDYWNEYWGQGTLVTVSS VL: EIVLTQSPATLSLSPGERATLSCRASQSVSSYLAWYQQKPGQAPRLLIYDASNRATGIPARFSGSGSGTDFTLTISSLEPEDFAVYYCQQRSNWPLTFGGGTKVEIKR | 1.4 | 1.1 | 4.4 | 1.7 | 1.5 | 1.7 | 1.1 | 3.4 | 6.1 | – | – | – | –
Fab fragment of antibody 15011 (Fab, V domains shown, not shown: a dimerising Fc or GST, monomeric Fab made by GingisKHAN digestion of the IgG1) VH: EVQLLESGGGLVQPGGSLRLSCAASGFDFRSYAMMWVRQAPGKGLEWVGGINGEVGGSNTYYAPAVKGRATISRDNSKNTLYLQMNSLRAEDTAVYYCVKGAGACGICNDDIDAWGQGTLVTVSS VL: SYELTQDPAVSVALGQTVRITCSGAGSYAGSYYYGWHQQKPGQAPVTVIYDNDKRPSNIPDRFSGSSSGNTASLTITGAQAEDEADYYCGSTNDNDDGGLFGSGTKVTVLG | 0.6 | 84.2 | 0.6 | 0.7 | 0.9 | 0.7 | 0.7 | 0.6 | 0.7 | – | – | – | –

Results, then the binder that gave them:

KD mutant/KD wild type [1] [fold] | KD mutant/KD wild type [2] [fold] | KD mutant/KD wild type [3] [fold] | KD mutant/KD wild type [4] [fold] | KD mutant/KD wild type [5] [fold] | KD mutant/KD wild type [6] [fold] | KD mutant/KD wild type [7] [fold] | KD mutant/KD wild type [8] [fold] | KD mutant/KD wild type [9] [fold] | binding result [1] | binding result [3] | binding result [6] | binding result [8] | Binder
– | 1 | – | 0.4 | 0.9 | – | 0.6 | – | 0.6 | no binding (tested: 300 nM) | no binding (tested: 300 nM) | no binding (tested: 300 nM) | no binding (tested: 300 nM) | Fab fragment of antibody 15431 (Fab, V domains shown, not shown: a dimerising Fc or GST, monomeric Fab made by GingisKHAN digestion of the IgG1) VH: QVQLQQSGPGLVKPSQTLSLTCAISGDSVSSNSAAWNWIRQSPSRGLEWLGRTYYRSKWYNDYAVSVKSRITINPDTSKNQFSLQLNSVTPEDTAVYYCARDDDWNDFDYWGQGTLVTVSS VL: EIVLTQSPATLSLSPGERATLSCRASQSVSSYLAWYQQKPGQAPRLLIYDASNRATGIPARFSGSGSGTDFTLTISSLEPEDFAVYYCQQRSNWPLTFGGGTKVEIKR
– | 1 | – | 0.6 | 0.6 | – | 0.8 | – | 0.7 | no binding (tested: 300 nM) | no binding (tested: 300 nM) | no binding (tested: 300 nM) | no binding (tested: 300 nM) | Fab fragment of antibody 15572 (Fab, V domains shown, not shown: a dimerising Fc or GST, monomeric Fab made by GingisKHAN digestion of the IgG1) VH: QLQLQESGPGLVKPSETLSLTCTVSGDSISSSSYYWGWIRQPPGKGLEWIGSIFYSGNTYYNPSLKSRVTISVDTSKNQFSLKLSSVTAADTAVYYCAREDDFLTDYYGAFDIWGQGTMVTVSS VL: not shown
